Experiments:
[1] = molecular target: eLH/CGR-D564G (equine)
[2] = molecular target: eLH/CGR-D578Y (equine)
[3] = molecular target: eLH/CGR-L457R (equine)
[4] = molecular target: eLH/CGR-M398T (equine)
[5] = molecular target: wild-type equine lutropin/choriogonadotropin receptor (eLH/CGR) (equine)
[6] = molecular target: eLH/CGR-D405N (equine)
[7] = molecular target: eLH/CGR-R464H (equine)
[8] = molecular target: eLH/CGR-Y546F (equine)
[9] = molecular target: wild-type equine lutropin/choriogonadotropin receptor (eLH/CGR) (equine); remark: listed apart in the source

## recombinant equine chorionic gonadotropin (rec-eCGβ/α) (from UniProt P08751 21-169; P01220 25-120) (ligand)
[1]
  EC50 of rec-eCG-stimulated cAMP accumulation (HTRF) in transiently transfected CHO-K1 cells, 30 min: 0.0583 µg/mL
[2]
  EC50 of rec-eCG-stimulated cAMP accumulation (HTRF) in transiently transfected CHO-K1 cells, 30 min: 0.0479 µg/mL
[3]
  EC50 of rec-eCG-stimulated cAMP accumulation (HTRF) in transiently transfected CHO-K1 cells, 30 min: 0.0244 µg/mL
[4]
  EC50 of rec-eCG-stimulated cAMP accumulation (HTRF) in transiently transfected CHO-K1 cells, 30 min: 0.0198 µg/mL
[5]
  EC50 of rec-eCG-stimulated cAMP accumulation (HTRF) in transiently transfected CHO-K1 cells, 30 min (experiment of Table 1): 0.0442 µg/mL
[6]
  EC50 of rec-eCG-stimulated cAMP accumulation (HTRF) in transiently transfected CHO-K1 cells, 30 min: 0.135 µg/mL
[7]
  EC50 of rec-eCG-stimulated cAMP accumulation (HTRF) in transiently transfected CHO-K1 cells, 30 min: 0.914 µg/mL
[8]
  EC50 of rec-eCG-stimulated cAMP accumulation (HTRF) in transiently transfected CHO-K1 cells, 30 min: 0.0959 µg/mL
[9]
  EC50 of rec-eCG-stimulated cAMP accumulation (HTRF) in transiently transfected CHO-K1 cells, 30 min (separate experiment of Table 2): 0.0303 µg/mL

Reference: paper PMC8509413
